Consider two molecules from paper doi:10.1101/2021.05.24.445441 (bioRxiv, 2021).

No end group written: not given here.

One series addresses p75-TM-C257A (human). Kind of series: NMR cross-correlated relaxation rates.
The series “NMR titration” concerns the molecule itself. Kind of series: NMR titration.

What is called stoichiometry N is a count of units in the complex or per binding partner. Consider p75-TM-C257A (domain or fragment), for which the stoichiometry N with p75-TM-C257A (human) worked out at 2.

As for MKKDETPFGVSVAVGLAVFACLFLSTLLLVLNKAGRRNK (domain or fragment, also: 15N-labelled in one titration, unlabelled in the other) [human TrkA-TM], the binding result in “NMR titration” is “binds”.
